Among the data in patent publication US20210163595A1 are IL-17 and IFN-γ levels, human whole blood assay (EC50) and LogEC50 values, retold here.

The target of assay [1] is human PD-1 expressed on the cell surface (human) (UniProt Q15116). As to the kind of experiment: cell-based or functional assay.
Assay [2] has the same target. As to the kind of experiment: flow cytometry on CHO cells expressing human PD-1; negative control; fit value of a flat curve; no unit in the table.
For assay [3], the target named is cyno PD-1 expressed on cells (cynomolgus monkey) (UniProt B0LAJ3). As to the kind of experiment: flow cytometry on CHO cells expressing cyno PD-1; negative control; fit value of a flat curve; no unit in the table.
UniProt B0LAJ3, sequence (B0LAJ3 entry or part of it limits assumed): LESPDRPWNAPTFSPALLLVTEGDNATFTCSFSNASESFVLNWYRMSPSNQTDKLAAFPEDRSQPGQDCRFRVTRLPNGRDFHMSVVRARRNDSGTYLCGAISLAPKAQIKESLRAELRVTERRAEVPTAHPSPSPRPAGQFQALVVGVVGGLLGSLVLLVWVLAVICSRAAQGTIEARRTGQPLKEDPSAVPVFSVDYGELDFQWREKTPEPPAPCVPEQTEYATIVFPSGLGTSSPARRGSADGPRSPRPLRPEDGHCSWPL

UniProt Q15116, sequence (Q15116 25-198 limits assumed): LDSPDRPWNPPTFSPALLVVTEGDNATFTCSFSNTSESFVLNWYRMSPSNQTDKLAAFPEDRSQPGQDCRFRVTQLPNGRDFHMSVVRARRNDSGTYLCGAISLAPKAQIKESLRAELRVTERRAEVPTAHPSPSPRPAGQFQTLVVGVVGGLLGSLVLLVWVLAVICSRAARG

Consider human IgG Fc fragment, for which, in assay [1], the IL-17 and IFN-γ levels, human whole blood assay (EC50) was > 100 nM.

As to huIgG1 Fc, the LogEC50 was -7.75 in assay [2] and -6.89 in assay [3].
